In the supplement of paper PMC12042874 one finds amyloid nucleation score data, which are given here for 103 substances.

± gives the uncertainty stated by the source.

This series in a line: amyloid nucleation score (Sup35N fusion, yeast selection) (log enrichment); library NNK2; higher = more nucleation; inactive = no reads after selection. The gist of the method: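 Peptides of 20 random codons fused to Sup35N were expressed in psi-negative yeast, induced 24 hours with 100 μM copper sulfate, then grown 7 days at 30°C on medium lacking adenine and uracil. Input and output plasmid inserts were Illumina-sequenced. Nucleation score is the DiMSum log enrichment of output over input reads, centred on the mode score of non-aggregating sequences, excluding sequences with under 100 input reads. Random libraries had three technical output replicates.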
In the case of MDGDFSINFMDPSTTCLLYE, the amyloid nucleation score result is “inactive”.
MDMPVWG displayed an amyloid nucleation score of 0.285 ± 1.
Substance MDSDNFLQYYSRYFNEVAFC came in with an amyloid nucleation score of -0.145 ± 0.79.
In turn, MDSMWPSVGGALKSRSGVFR registered an amyloid nucleation score of -0.126 ± 0.39.
To MEAIVERIGYITYVLNFKER belongs “inactive”.
In the case of MEIRTQLFVLVCSKNILGDS, the amyloid nucleation score is -0.849 ± 1.1.
Turning to MEKARTGGGSVTHDGKCARW, the amyloid nucleation score stood at 0.649 ± 0.22.
The substance MFASNLRKMSGGGVI gave an amyloid nucleation score of -0.694 ± 1.1.
To MFGGPGGGRDRVMVGDVLLG belongs 0.295 ± 1.
Turning to MFGTMWAWFSVYACEVAWN, the amyloid nucleation score stood at 0.045 ± 0.62.
In the case of MFKWHYWVEHNFSTRDNICA, the amyloid nucleation score entry is “inactive”.
The value for MFLKVSLVGNMVSEKPGRSS was 3.21 ± 0.15; that for MFNCTQSVLPLGF was “inactive”.
For the substance MFPVPLVNIGMPDRWVKEKD, the amyloid nucleation score came to 0.469 ± 0.34.
For MFTVRWASFCVVINSSY, the amyloid nucleation score was 2.91 ± 0.069.
As for MFVYADFSHILEKRGHTGNR, the amyloid nucleation score amounted to 2.64 ± 0.15.
On to MGCDGVSVLRWCTHIELGME, for which the amyloid nucleation score is -0.782 ± 0.31.
Consider MGFRGIHMRVCAFLRWYNNY, for which the amyloid nucleation score is -0.709 ± 0.33.
The value for MGGQLLSNECLHSDSFVCFH was 1.21 ± 0.47; that for MGLSTRLH was “inactive”.
Consider MGNLCCVPRYYMHQVEYPRF, for which the amyloid nucleation score entry was “inactive”.
Take MGPKSRFRSTRNGVKYL: the amyloid nucleation score is -0.571 ± 0.64.
With MGRDLLASDSTCVGRVQGKL, the amyloid nucleation score came to 0.965 ± 0.57.
For MGSGYSQCAGRGWARVERLG, the amyloid nucleation score came out at 1.44 ± 0.3.
The value for MIHYKYGFPNMGIRTYVSFV was 1.47 ± 0.26; that for MIRKVYYSF was -0.77 ± 1.
Turning to MISCSLSFSLAPQDELRSCK, the amyloid nucleation score entry is “inactive”.
Substance MKAHVVVTLSCRYNLYGAPH had an amyloid nucleation score of 4.52 ± 0.054.
The substance MKGNSSGVA showed an amyloid nucleation score of 1.25 ± 0.31.
MKPSSSLTYLE: the amyloid nucleation score was -0.11 ± 0.5.
As for MKSSPA, the amyloid nucleation score was -0.395 ± 0.32.
Take MKTGLGVFRSFDLVVYNRR: the amyloid nucleation score entry is “inactive”.
The value for MKVLGNCISQIVNMDVWLLF was -1.73 ± 0.47; that for MLCCCTLQVGFAYIFLFL was 3.28 ± 0.15; that for MLCGINGMMSSTLVCGRAII was -0.161 ± 0.65.
With MLCRMSAFRLGMRYDTRFLL, the amyloid nucleation score was -0.064 ± 1.1.
Turning to MLCRYVVVQGLKVNMGHVFC, the amyloid nucleation score is 7.567 ± 0.065.
The value for MLDMPDYCNYYL was 1.27 ± 0.14.
Regarding MLFSTATYSSGRRFDFVEIA, the amyloid nucleation score worked out at 0.422 ± 0.65.
As for MLIIKVLCSMCIVIFLTLIC, the amyloid nucleation score came to 2.55 ± 0.18.
MLKMS returned an amyloid nucleation score of 1.85 ± 0.15.
On to MLLVVYGQVRTISLLRRRSS, for which the amyloid nucleation score was -0.243 ± 0.74.
The value for MLRNWLCRY was 2.02 ± 0.42; that for MLVSGSSLEW was 0.264 ± 0.42; that for MLVVLWQSARRSVTIIKVRT was 0.546 ± 0.5.
MLYYTCTQQHTDFLRCF: the amyloid nucleation score was -0.391 ± 0.32.
Regarding MMGLGKCR, the amyloid nucleation score came out at 1.36 ± 0.33.
With MMKGRDKTGYPTTRGVMCDK, the amyloid nucleation score came out at 0.232 ± 0.18.
Take MNASDIKTFKL: the amyloid nucleation score was -0.531 ± 1.1.
The value for MNCVGG was -0.389 ± 0.61; that for MNFESNFRNTKCEIFIVIYN was 4.62 ± 0.11; that for MNFWMILVKSETYFNDRRPY was 7.152 ± 0.061.
With MNGCTTANGIVDTRSNAFTC, the amyloid nucleation score was found to be 1.87 ± 0.097.
Consider MNGIFVNLKSKIRTFCRSVY, for which the amyloid nucleation score turned out to be 2.67 ± 0.11.
Take MNIAVIHNMVQGSKAPDYHF: the amyloid nucleation score is 4.67 ± 0.075.
For MNIVVYVHLGVSAQVSMAHR, the amyloid nucleation score stood at 8.407 ± 0.041.
For the substance MNVGCIDQFYCMWRCNIFWP, the amyloid nucleation score is 7.678 ± 0.055.
With MNVGTFSLRFLSFDLL, the amyloid nucleation score was -0.054 ± 1.1.
MNWTSVHLDDWSRILIHTYC: the amyloid nucleation score result was “inactive”.
Take MPSRYMIVMFNLTLPRRGVG: the amyloid nucleation score is -0.226 ± 0.55.
As for MQSINVNNVKTSTRPFFVNR, the amyloid nucleation score result is “inactive”.
To MQTICSN belongs -1.13 ± 1; to MRCAPLMHHLARPASFRI, 2.08 ± 0.096; to MRCKRYECSGDSWWGYSFAK, 0.131 ± 0.27.
Regarding MRCNFADSAYRMISMTV, the amyloid nucleation score worked out at 0.412 ± 0.55.
MRMVA displayed an amyloid nucleation score of -0.723 ± 0.49.
MRNPYFRHCRFITRRVVFID: the amyloid nucleation score entry was “inactive”.
On to MRPMIFPCYAMSSVSMLTSR, for which the amyloid nucleation score was determined as 0.72 ± 0.27.
Consider MRTIGGD, for which the amyloid nucleation score came to 0.348 ± 0.38.
MRWRMCIIFNLVISY gave an amyloid nucleation score of 0.218 ± 1.1.
MRYEFVLFLRFRGSDTKGRD registered an amyloid nucleation score of -0.124 ± 0.33.
The value for MRYRIICNFCHDVRKESLLK was -0.246 ± 0.8; that for MSAPRMEQSWEHQQQRDHTC was 0.661 ± 0.33.
Regarding MSFNQLIMFETRSSTPYRWR, the amyloid nucleation score stood at 5.71 ± 0.078.
The substance MSGSDNLILYSSV yielded an amyloid nucleation score of -0.212 ± 0.45.
The substance MSMLMRVRCEISVTTML registered an amyloid nucleation score of 4.498 ± 0.031.
For the substance MSNRVCCNYVGSHVRYCVSK, the amyloid nucleation score amounted to 4.913 ± 0.048.
Take MSQFGHVCSRAYFLRDDQAN: the amyloid nucleation score result was “inactive”.
MSRKFMGVFCTSSRGSLPRG returned an amyloid nucleation score of 0.653 ± 0.47.
The value for MSSIDFSFCTSSLRTYSIVR was 0.155 ± 1.1; that for MSTIEYSDGVEGRHILCLIA was 1.2 ± 0.35; that for MSVKSEAGRRSLRMNSKTSR was 0.078 ± 0.22.
MSVLRSG: the amyloid nucleation score was 0.526 ± 0.66.
Take MSYVLMVFASPIMYVTHPIA: the amyloid nucleation score is 1.89 ± 0.2.
Regarding MTFAT, the amyloid nucleation score was -1.51 ± 1.1.
The value for MTIDCFTFRDQGVYGTLMLK was 3.33 ± 0.043; that for MTIQSYGVILLLISVYWLSF was 0.584 ± 0.66.
MTIVCRWR came in with an amyloid nucleation score of 3.04 ± 0.16.
Turning to MTIVVSDCTSVSDVFIGLGN, the amyloid nucleation score was determined as 2.29 ± 0.076.
The substance MTMGEKTLCPWNHSDLAPSR came in with an amyloid nucleation score of 0.966 ± 0.49.
Consider MTNMT, for which the amyloid nucleation score turned out to be 1.18 ± 0.61.
As for MTRYDDRFVQNRSSWLDNFD, the amyloid nucleation score was -0.909 ± 0.48.
The substance MTSFGYHMNLCH had an amyloid nucleation score of 0.072 ± 1.1.
In the case of MTWGSISNNLVTRTTPTYIC, the amyloid nucleation score was found to be 0.178 ± 0.56.
For MVAGDKRDGG, the amyloid nucleation score was determined as 2.39 ± 0.07.
Substance MVGNWDSV had an amyloid nucleation score of -0.011 ± 0.49.
MVHLRGIDVMSILDSYCESG had an amyloid nucleation score of 0.544 ± 0.52.
Substance MVHTKYPLWSNSRVLWDSVT registered an amyloid nucleation score of 0.397 ± 0.64.
With MVMANHRSYRY, the amyloid nucleation score amounted to 7.663 ± 0.026.
For MVQPS, the amyloid nucleation score turned out to be 0.462 ± 0.5.
The substance MVRDIEFTLKGRTMG yielded an amyloid nucleation score of -0.032 ± 1.1.
MVSVKSCYYVSVSVLSRFHF gave an amyloid nucleation score of 0.065 ± 0.36.
Consider MVWSSRDS, for which the amyloid nucleation score was -0.548 ± 0.54.
